These results are taken from patent CN111320694A.

In the test the target is GPC3蛋白 (Glypican 3 protein, recombinant) (UniProt P51654). The test can be described thus: sandwich ELISA: GPC3 polyclonal antibody coated, GPC3 protein titrated, 0.2μg/mL GN2-Luc as detector, luminescence. A general note: An ELISA detects its analyte on a solid surface through an enzyme-linked reagent.
Chain of UniProt P51654 (P51654 25-559 limits assumed): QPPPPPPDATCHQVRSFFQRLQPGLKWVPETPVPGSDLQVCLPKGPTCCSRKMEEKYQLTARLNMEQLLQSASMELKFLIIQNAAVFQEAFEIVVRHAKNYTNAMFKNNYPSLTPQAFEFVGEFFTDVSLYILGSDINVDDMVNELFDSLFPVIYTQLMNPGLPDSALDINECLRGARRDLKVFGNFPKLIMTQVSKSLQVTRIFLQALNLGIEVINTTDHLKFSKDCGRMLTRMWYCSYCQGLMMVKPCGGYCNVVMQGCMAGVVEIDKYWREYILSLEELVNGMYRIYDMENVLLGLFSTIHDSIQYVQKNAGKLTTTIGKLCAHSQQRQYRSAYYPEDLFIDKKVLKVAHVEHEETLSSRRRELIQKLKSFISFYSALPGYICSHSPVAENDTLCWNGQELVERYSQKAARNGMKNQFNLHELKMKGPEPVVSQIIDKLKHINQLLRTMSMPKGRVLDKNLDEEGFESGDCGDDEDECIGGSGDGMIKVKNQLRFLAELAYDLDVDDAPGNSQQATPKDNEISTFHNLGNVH

B1: 融合蛋白GN2-Luc (GN2-Nano-luciferase fusion protein) (protein, part only; not given: junction and purification tag, not shown: small tags and cut ends)
chain, part: QVQLVESGGGLVQPGGSLRLSCAASGFTLDAYAIGWFRQAPGKEREGVSYITSGTGTTLYADSVKGRFTISRDNAKNTVYLQMNSLKPEDTAVYFCTTLKRTTAGGWPIPGRIGGQGTQVTVSS
On to B1, for which the EC20 (GPC3 concentration at 20% of the strongest luminescence) was 0.0539 mg/L and the EC80 (GPC3 concentration at 80% of the strongest luminescence) was 0.219 mg/L.
